This passage reports stoichiometry N results from article PMC10090177.

What is called stoichiometry N is a count of units in the complex or per binding partner.

Holding throughout (test): cryo-EM structure; purified SGIV virions; icosahedral capsid, block-based reconstruction at 3.5 Å; atomic model of one asymmetric unit
The target in assay [1] is Singapore grouper iridovirus major capsid protein VP72 (Singapore grouper iridovirus (SGIV)).
In assay [2] the target is Singapore grouper iridovirus zip protein VP38 (P1) (Singapore grouper iridovirus (SGIV)).
The target of assay [3] is Singapore grouper iridovirus penton protein VP14 (Singapore grouper iridovirus (SGIV)).

As to “Singapore grouper iridovirus major capsid protein VP72 (natural protein)”, the stoichiometry N in assay [1] is 3.

The substance “Singapore grouper iridovirus zip protein VP38 (P1) (natural protein)” displayed a stoichiometry N in assay [2] of 2.

Substance “Singapore grouper iridovirus penton protein VP14 (natural protein)” gave a stoichiometry N in assay [3] of 5.
